To fix the notation:
B1: HDV Ribozyme (parent)
chain: GGCCGGCAUGGUCCCAGCCUCCUCGCUGGCGCCGGCUGGGCAACAUUCCGAGGGGACCGUCCCCUCGGUAAUGGCGAAUGGGACCCA

In the series the parent is B1. Kind of series: self-cleavage, relative activity (ratio to wild type); higher = more cleavage; co-transcriptional.
Consider C66U G80A, for which the self-cleavage was found to be 0.475.

In the case of G10U C15G, the self-cleavage was found to be 0.0773. To A42U U46C belongs 0.45. To U9A C75G belongs 0.0665; to G54C C66G, 0.591. With G67A G76U, the self-cleavage amounted to 0.965.

As to C64U U72C, the self-cleavage worked out at 0.612. To A56G C85U belongs 1.02. Under C36A U60A stands 0.198; under G67A C86A, 0.985. Consider G2A G68C, for which the self-cleavage was 0.177. Under A71U A87C stands 0.913; under U20C U27A, 0.196; under C3A A43G, 0.0821. To G35A G68A belongs 0.496; to G10C G52C, 0.78; to G28U A70U, 0. To A71U U79A belongs 0.782; to G52U C57G, 0.95; to C21A U69C, 0.0426. On to G11A U46G, for which the self-cleavage is 0.128. Under C4U U23A stands 0.727. Under C21A C61U stands 0.0963; under G38C G59U, 0.233; under U69A C85A, 0.767. To U72G A77U belongs 0.185; to G28U A43C, 0.0755. With A42C C64U, the self-cleavage was determined as 0.208. For G40C C41A, the self-cleavage is 0.706.

Turning to G11C C41G, the self-cleavage stood at 0.712.

C14U A71C: the self-cleavage was 0.831. To G35A U79A belongs 0.47; to C15U C18G, 0.0594; to U37A A77C, 0.0426. Regarding G29C C75A, the self-cleavage came out at 0.138. Take G2A A45C: the self-cleavage is 0.0723.

On to G6A G80A, for which the self-cleavage is 0.147. Turning to G25U G38U, the self-cleavage was 0.134. Under C3A A83U stands 0.0821; under G35A G55U, 0.577; under C4A C32G, 0. Under C21A U23G stands 0.125; under A16G U79A, 0.997; under G52U U72G, 0.396. Under C49U C61G stands 0.731; under G28U C75A, 0.0755.

With U72A G76U, the self-cleavage is 0.863. To G11U C84U belongs 0.292; to C63A G76C, 0.976.

Consider C13G C57A, for which the self-cleavage turned out to be 0.0554. On to C14A G68U, for which the self-cleavage was 0.462. To U12C C75U belongs 0.104; to A77U U79C, 0.0811. Under G39C C64G stands 0.295; under A8U C41A, 0.443; under G6C G38U, 0.203. To A70U C86G belongs 0.872. Regarding C4A A70C, the self-cleavage turned out to be 0.136. Under U37G A51U stands 0; under A45G A71U, 0.997.

For the variant C75U G76A, the self-cleavage amounted to 0.0852. To G11C A87G belongs 0.34.

With C32U A78U, the self-cleavage came out at 0.178. Under C18U C58G stands 0.778. Regarding C26U G28U, the self-cleavage is 0.277. Under C61G A83U stands 0.151. Regarding C7U C26U, the self-cleavage worked out at 0.867. Under C33G C75A stands 0.0791; under C26A G50U, 0.958; under C44U G68C, 0.529.

As to G50A A70U, the self-cleavage was determined as 1.05.

Consider C48A G73C, for which the self-cleavage is 0.618. Turning to C32U C61U, the self-cleavage worked out at 0.817. To U20C C57U belongs 0.306; to C24A G39C, 0.0692. Under C7G G52A stands 0.151; under G54C C86U, 0.923.

Turning to C7G G68U, the self-cleavage was found to be 0.285. To G80A G81C belongs 0.106; to G80A G81U, 0.0936; to U20G A45G, 0.0755. With A42U C75G, the self-cleavage was 0.125.

Take C57U U60G: the self-cleavage was found to be 0.702. Under G11A C21U stands 0.175; under C33G C86A, 0.146. With U20C G40A, the self-cleavage was 0.0941. To A16C U47G belongs 0.185; to U46C G74U, 0.554. Under C4A C44A stands 0.148; under G40C A83G, 0.163. To G39A U72A belongs 0.133. On to G59A A77G, for which the self-cleavage amounted to 0.867. To A16C A51C belongs 0.612. To U20A C61U belongs 0.208; to C4U G5U, 0.237. Under G28C C86G stands 0.0692; under U27A A71G, 1.07; under G11U A87U, 0.199.

For G5A U69C, the self-cleavage came out at 0.208. Under G10U C22G stands 0.0623; under G55U G68U, 1; under G53C C58U, 1.14. Under U72G G80A stands 0.185.

Turning to A70U C75U, the self-cleavage turned out to be 0.219.

G1U A43G: the self-cleavage came out at 0.147. As to G40A C66G, the self-cleavage amounted to 0.655.

With C22A G25U, the self-cleavage worked out at 0.0755. Under U12C U47A stands 0.289. Under G25C C86A stands 0.128. To U37A C64U belongs 0.185. Regarding U12A C86A, the self-cleavage turned out to be 0.623. Under C19A C33A stands 0.0852; under C4A G73U, 0. To C57G C58A belongs 1.26; to C48U G74U, 0.554; to C15U U47A, 1.23.

For C14A C36G, the self-cleavage amounted to 0.107. As to G34C U69G, the self-cleavage worked out at 0.703. Under U27G U47G stands 1.27; under A45U G59C, 0.969.

Regarding C41G U79C, the self-cleavage was 0.35. Under C49U A51C stands 0.712. Under C21G G25C stands 0.0489; under C41G A45C, 0.166. To C3A C30U belongs 0.143. Consider C3A C30A, for which the self-cleavage was determined as 0.0393. Under C22A G29C stands 0.0449.

For the variant C75G G82C, the self-cleavage stood at 0.271.

As for C33A G55U, the self-cleavage was determined as 0.349. Regarding G28U G55U, the self-cleavage came out at 0.185. To G1U C18G belongs 0.151; to G40U A87C, 0.732; to C15G A70U, 0.415. With C49G C62U, the self-cleavage was 0.831.

Consider U47A A51G, for which the self-cleavage is 0.902. To G6A C86A belongs 0.536. To G34A A87U belongs 0.196. To G2A G50C belongs 0.205; to G17C U65C, 0.529; to G34A G76U, 0.269. As to G11C G76A, the self-cleavage amounted to 0.312. To U20C A51C belongs 0.287; to C30A C33G, 0.128; to G39C A51C, 0.291. Under A43U C75A stands 0.0755; under C49G A77U, 0.604. Regarding C15U C33A, the self-cleavage is 0.178. Under G10C U27G stands 0.798. Under A51U G80U stands 0.257; under C66A G80A, 0.54.

With G1C A8C, the self-cleavage stood at 0.

As for G1A C62G, the self-cleavage worked out at 0.0519. To G50U A51G belongs 0.956; to U69G G81C, 0.101. To C48G G54C belongs 0.665; to C48A C86A, 0.831. With A45G, the self-cleavage turned out to be 0.918. Under G10U C85G stands 1.03. Under G81U A87C stands 0.444. Under U9C C32A stands 0. For C48A C61U, the self-cleavage is 0.911. Under C41U C63G stands 0.739; under G11U C36U, 0.138; under C58A G73C, 0.68. To G29A C32U belongs 0.218. As to C33G, the self-cleavage was 0.173. Under A16C G25U stands 0.

The values above are taken from the RNAGym collection of RNA variant scans (doi:10.7554/elife.80360).
